Measured values from the supplement of paper PMC10201428.
± gives the standard deviation of the averaged measurements.

How the values were obtained:
[1] = test system: VchCAST RNA-guided transposition machinery (E. coli BL21(DE3) host, lacZ target); experiment: relative integration efficiency (T-RL orientation) vs wild-type transposon end (log2 (normalized fold change)); transposon end mutated: left end; higher = more efficient transposition
Method: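 Pooled, barcoded VchCAST (Tn6677) mini-transposon donor libraries; each variable transposon-end sequence sits in a fixed pDonor mini-transposon context (10-bp barcode and cargo not included). Left- or right-end libraries were co-transformed with pEffector (TniQ-Cascade, TnsABC, lacZ crRNA, T7, 0.1 mM IPTG) into E. coli BL21(DE3) and grown 18 h at 37 C. T-LR and T-RL junction amplicons were sequenced; output/input barcode fold change was normalised to the mean of four wild-type barcodes and log2-transformed. Two biological replicates; zero-count/undetected variants carry floor values (-10 / -15), censored here. Barcode uncoupling by PCR recombination adds noise.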

[2] = test system: VchCAST RNA-guided transposition machinery (E. coli BL21(DE3) host, lacZ target); experiment: relative integration efficiency (T-LR orientation) vs wild-type transposon end (log2 (normalized fold change)); transposon end mutated: right end (5 bp flank + 75 bp right end); higher = more efficient transposition
How it was run: (§1)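 Barcode abundances in input plasmids and in genomic integration junctions were obtained by PCR amplification and Illumina sequencing. These came from E. coli BL21(DE3) co-transformed with a T7-driven effector plasmid and a pUC57 donor carrying 1549 left-end or 1849 right-end transposon variants, then plated with 0.1 mM IPTG at 37°C for 18 h. Relative integration efficiency is the output/input fold change, normalised to reference barcodes and log-transformed.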

[3] = test system: VchCAST RNA-guided transposition machinery (E. coli BL21(DE3) host, lacZ target); experiment: relative integration efficiency (T-RL orientation) vs wild-type transposon end (log2 (normalized fold change)); transposon end mutated: right end (5 bp flank + 75 bp right end); higher = more efficient transposition
How it was run: as §1

Row | Sequence | relative integration efficiency (log2) [1] | relative integration efficiency (log2) [2] | relative integration efficiency (log2) [3]
1 | AATGTTGTTGATGCAACCATAAAGTGATATTTAATAATTATTTATAATCAGCAACTTAACCACAAAACAACCATATATGTCGCGAGACACCCCACCAACGCCTGGTCGCGGGGGTGTCCGATCTGATTTCAGCAAAACTACTGCAGTAAGAA | -6.15 ± 1.3 |  | 
2 | AATGTTGTTGATGCAACCATAAAGTGATATTTAATAATTATTTATAATCAGCAACTTAACCACAAAACAACCATATATTGATAACAAAACAACCATAAGTTGATATTTTTGTGAATCGAGTATTTCAGCAAAACTACTGCAGTAAGAAAGTT | -4.08 ± 0.82 |  | 
3 | AATGTTGTTGATGGTTGGTATTTCACTATAAATATAATTATTTATAATCAGCAACTTAACCACAAAACAACCATATATTGATATCTCACAAAACAACCATAAGTTGATATTTTTGTGAATCGAGTATTTCAGCAAAACTACTGCAGTAAGAA | -6.55 ± 1.7 |  | 
4 | AATGTTGTTGATGCAACCATAAAGTGATATTTAATAATTATTTATAATCAGCAACTTAACCCAACCATATATTGATATCTCACAAAAACAAAACAACCATAAGTTGATATTTTTGTGAATCGAGTATTTCAGCAAAACTACTGCAGTAAGAA | -3.11 ± 0.98 |  | 
5 | AATGTTGTTGATGCAACCATAAAGTGATATTTAATAATTATTTATAATCATTGTGAGCGGATAACAACAACCATATATTGATATCTCACAAAACAACCATAAGTTGATATTTTTGTGAATCGAGTATTTCAGCAAAACTACTGCAGTAAGAA | -3.2 ± 0.53 |  | 
6 | AATGTTGTTGATGCAACCATAAAGTGATATTTAATAATTATTTATAATCAGCAACGGCCAACACCCCACCAACGCGCGGTCGCGAGACACCCCACCAACGCCTGGTCGCGGGGGTGTCCGATCTGATTTCAGCAAAACTACTGCAGTAAGAA | -6.79 ± 1.6 |  | 
7 | AATGTTGTTGATGCAACCATAAAGTGAGCGGGCCGCCGGCGGGCGCCGACTACCAGGCCAACACCCCACCAACGCGCGGTCGCGAGACACCCCACCAACGCCTGGTCGCGGGGGTGTCCGATCTGATTTCAGCAAAACTACTGCAGTAAGAA | -8.13 ± 0.57 |  | 
8 | AATGTTGTTGATGCAACCATAAAGTGATATTTAATAATTATCAACCATATATTGATATCTCACAAAACAACCATAAGTTGATATTTTTGTGAATCGAGTATTTCAGCAAAACTACTGCAGTAAGAAAGTTACTTCGTGGTATGGGAGGATCA | -7.99 ± 0.76 |  | 
9 | AATGTTGTTGATGCAACCATAAAGTGATATTTAATAATTATTTATAATCAGCAACTCAACCATATATTGATATCTCTAACCACAAAAACAAAACAACCATAAGTTGATATTTTTGTGAATCGAGTATTTCAGCAAAACTACTGCAGTAAGAA | -4.84 ± 0.92 |  | 
10 | AATGTTGTTGATGCAACCATAAAGTGATATTTAATAATTATTTATAATCAGCAACTTAACCCAACCATATATTGATATCTCACAAAACAACCATAAGTTGATATTTTTGTGAATCGAGTATTTCAGCAAAACTACTGCAGTAAGAAAGTTAC | -7.05 ± 1.7 |  | 
11 | AATGTTGTTGATGCAACCATAAAGTGATATTTAATAATTATTCAACCATAAAGTGATATTTAACTTACAACCATATATTGATATCTCACAAAACAACCATAAGTTGATATTTTTGTGAATCGAGTATTTCAGCAAAACTACTGCAGTAAGAA | -3.81 ± 1.1 |  | 
12 | AATGTTGTTGATGCAACCATAAAGTGATATTTAATAATTATTTATAATCACAACCATATATTGATATCTCGCAACTTAACCACAAAAACAAAACAACCATAAGTTGATATTTTTGTGAATCGAGTATTTCAGCAAAACTACTGCAGTAAGAA | -6.71 ± 0.83 |  | 
13 | AATGTTGTTGATGCAACCATAAAGTGATATTTAATAATTATTTATAATCAGCAACTTAACCACCAACCATATATTGATATCTCACAAAACAACCATAAGTTGATATTTTTGTGAATCGAGTATTTCAGCAAAACTACTGCAGTAAGAAAGTT | -4.85 ± 1.1 |  | 
14 | AATGTTGTTCAACCATAAAGTGATATTTAATAATTATTTATAATCAGCAACTTAACCACAAAACAACCATATATTGATATCTCACAAAACAACCATAAGTTGATATTTTTGTGAATCGAGTATTTCAGCAAAACTACTGCAGTAAGAAAGTT | -7.77 ± 0.46 |  | 
15 | AATGTTGTTGATGCAACCATAAAGTGATATTTAATAATTATTTATAATCAGCAACTTAACCACAACCATATATTGATATCTCACAAAACAACCATAAGTTGATATTTTTGTGAATCGAGTATTTCAGCAAAACTACTGCAGTAAGAAAGTTA | -5.27 ± 0.97 |  | 
16 | AATGTTGTTGATGCAACCATAAAGTGATATTTAATAATTATTTATAATCAGCAACCATATATTGATATCTCACAAAACAACCATAAGTTGATATTTTTGTGAATCGAGTATTTCAGCAAAACTACTGCAGTAAGAAAGTTACTTCGTGGTAT | -8.36 ± 0.35 |  | 
17 | AATGTTGTTGATGCAACCATAAAGTGATATAATTATTTATAATCAGCAACTTAACCACAAAACAACCATATATTGATATCTCACAAAACAACCATAAGTTGATATTTTTGTGAATCGAGTATTTCAGCAAAACTACTGCAGTAAGAAAGTTA | -6.82 ± 0.68 |  | 

Row | Sequence | relative integration efficiency (log2) [1] | relative integration efficiency (log2) [2] | relative integration efficiency (log2) [3]
18 | AATGTTGTTGATGCAACCATAAAGTGATATTTAATAATTATTTATAATCATACCAGGCCAACACCCCACCAACGCGCGGTCGCGAGACACCCCACCAACGCCTGGTCGCGGGGGTGTCCGATCTGATTTCAGCAAAACTACTGCAGTAAGAA | -6.02 ± 1.1 |  | 
19 | ACATTTGTTGATACAACCATAAAAGGATTATTACACCCATTAATTGATAATTATCACACCCAATTTAACTATAACGCTCTGATCATAGTCAGACCAACATTGCTACGACCCGTATTCGCACCGACAC |  | 1.27 ± 0.069 | -2.02 ± 0.28
20 | ACATTTGTTGATACAACCATAAAATGATAATTAATAATTATTTATAATCAGCAACTTAACCACAACACCCATAAATTGATAATTATCAACAAACGCCCGGTCGCGGTACTCTGATCATAGTCAGACC |  | -0.0981 ± 0.042 | -3.33 ± 0.27
21 | ACATTTGTTGATACAACCATAAAATGATAATTACACCCATAATATGATAATTATCACACCCATAAATTGATATTGCCTCTGATCATAGTCAGACCAACATTGCTACGACCCGTATTCGCACCGACAC |  | -0.175 ± 0.045 | -0.297 ± 0.039
22 | ACATTTGTAAAAAAAACCATACGTTGATTTTACGAAACCATACGCTGAAATAAAAACAACCATACCTTGAAATTGCCTCTGATCATAGTCAGACCAACATTGCTACGACCCGTATTCGCACCGACAC |  | -4.82 ± 1.9 | -6.84 ± 0.49
23 | ACATTTGTTGATACAACCATAAAATGATAATTACACCCATAAATTGATAATGATGACACCGAATTTAACTATAACGCTCTGATCATAGTCAGACCAACATTGCTACGACCCGTATTCGCACCGACAC |  | 2.06 ± 0.097 | -1.34 ± 0.27
24 | ACATTTGTTGATACAACCATAAAATGATAATTACACCCATAAATTGATAATTATCACACCCATAAATTGATATTGCCTCTGATCATAGTCACAACCATAAAATGATAATTAGACCAAGCACCGACAC |  | -0.387 ± 0.086 | -0.196 ± 0.19
25 | ACATTTGTCGATACAACCCTAAAATGATAATTACACCCATAAATTCATAATTATCACCCCCAATTTAACTATAACGCTCTGATCATAGTCAGACCAACATTGCTACGACCCGTATTCGCACCGACAC |  | -1.84 ± 0.085 | -4.67 ± 0.055
26 | ACATTTGCTGATACTACCATTTAATGATAATAACACCCCTAAAATGATAATTATCACACCCAATTTAACTATAACGCTCTGATCATAGTCAGACCAACATTGCTACGACCCGTATTCGCACCGACAC |  | -4.07 ± 0.06 | -4.9716 ± 0.0047
27 | ACATTTGTTCATACAACCATAAAATGATAATTACACCCATAAATTCATCATTATCACACCCAATTTAACTATAACGCTCTGATCATAGTCAGACCAACATTGCTACGACCCGTATTCGCACCGACAC |  | -0.334 ± 0.16 | -2.35 ± 0.22
28 | ACATTTGTTGATACAACCATAAAAACTAAATTACACCCATAAATTGATAATTATCACACCCATAAATTGATATTGCCTCTGATCATAGTCAGACCAACATTGCTACGACCCGTATTCGCACCGACAC |  | -1.55 ± 0.34 | -1.23 ± 0.062
29 | ACATTTGTTGATACAACCATAAAATGATAATTACCAAAATAAATTGATAATTATCACACCCATAAATTGATATTGCCTCTGATCATAGTCAGACCAACATTGCTACGACCCGTATTCGCACCGACAC |  | -1.47 ± 0.039 | -0.773 ± 0.1
30 | ACATTTGTTGATACAACCATATTATGATAATTACACCCATATTTTGATAATTATCACACCCATATTTTGATATTGCCTCTGATCATAGTCAGACCAACATTGCTACGACCCGTATTCGCACCGACAC |  | -0.471 ± 0.23 | -0.5763 ± 0.0022
31 | ACATTTGTTGATACAACCATTAAATGATAATTCCACCCATAACTTGATAATTATCACACCCAATTTAACTATAACGCTCTGATCATAGTCAGACCAACATTGCTACGACCCGTATTCGCACCGACAC |  | 1.93 ± 0.17 | -1.14 ± 0.15
32 | ACATTTGTTGATACAACCATAAAATGATAATTACCCCCATCAATTGATAATTATCACACCCCATTTAACTATAACGCTCTGATCATAGTCAGACCAACATTGCTACGACCCGTATTCGCACCGACAC |  | 0.526 ± 0.33 | -2.27 ± 0.37
33 | ACATTTGTTGATACAACCATAAAATGATAATGCCACCCATAAATTGATAATGCTCACACCCATAAATTGATATTTACTCTGATCATAGTCAGACCAACATTGCTACGACCCGTATTCGCACCGACAC |  | -0.0326 ± 0.2 | -0.867 ± 0.17
